Experiments:
[1] = molecular target: T1, rat IL-23 (rat, UniProt P43432 23-335; Q91Z84 22-196, limits assumed); assay: SPR, antibody captured by anti-human Fc, cytokine injected
T1 chain 1: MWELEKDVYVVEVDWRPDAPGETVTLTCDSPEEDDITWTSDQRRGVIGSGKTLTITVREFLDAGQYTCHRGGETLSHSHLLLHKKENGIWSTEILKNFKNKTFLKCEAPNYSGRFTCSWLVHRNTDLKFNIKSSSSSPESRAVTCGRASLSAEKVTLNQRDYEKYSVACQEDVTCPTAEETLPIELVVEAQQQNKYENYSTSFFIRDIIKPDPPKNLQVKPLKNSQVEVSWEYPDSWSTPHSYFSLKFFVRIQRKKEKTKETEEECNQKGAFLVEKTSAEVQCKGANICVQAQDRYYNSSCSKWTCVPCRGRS
T1 chain 2: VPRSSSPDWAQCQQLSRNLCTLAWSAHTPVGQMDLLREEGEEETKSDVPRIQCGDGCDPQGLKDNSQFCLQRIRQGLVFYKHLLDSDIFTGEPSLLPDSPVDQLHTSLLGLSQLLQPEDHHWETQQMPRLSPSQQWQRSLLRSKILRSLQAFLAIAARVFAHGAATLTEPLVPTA
Method: In order to determine binding to TL1A, kinetic assays were conducted at 37° C. using a collection rate of 10 Hz on a Biacore™ T200 instrument (GE Healthcare). […] For the analysis of the p40 binding arm, kinetic assays were conducted at 37° C. using a collection rate of 10 Hz on a Biacore™ 8 K+ instrument (GE Healthcare).

[2] = molecular target: T2, recombinant mouse TL1A (mouse, UniProt Q5UBV8 75-252); assay: SPR, antibody injected over captured biotinylated TL1A, 37° C.
T2 construct: biotinylated for SPR capture
T2 chain: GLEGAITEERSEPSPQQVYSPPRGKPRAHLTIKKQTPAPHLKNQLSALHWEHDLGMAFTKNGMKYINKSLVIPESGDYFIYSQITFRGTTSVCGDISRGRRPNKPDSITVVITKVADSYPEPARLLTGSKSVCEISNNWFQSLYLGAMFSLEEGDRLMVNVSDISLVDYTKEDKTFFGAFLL
Method: (§1) For these analyses, kinetic assays were conducted at 37° C. using a collection rate of 10 Hz on a Biacore™ T200 instrument (GE Healthcare). […] The association phase was 90 seconds, and the dissociation phases were 1600 seconds over human, cynomolgus monkey and rabbit TL1A and 180 seconds for mouse and rat TL1A.
(§2) In order to determine binding to TL1A, kinetic assays were conducted at 37° C. using a collection rate of 10 Hz on a Biacore™ T200 instrument (GE Healthcare).

[3] = molecular target: T3, recombinant rat TL1A (rat, UniProt Q8K3Y7 76-252); assay: as above
T3 construct: biotinylated for SPR capture
T3 sequence: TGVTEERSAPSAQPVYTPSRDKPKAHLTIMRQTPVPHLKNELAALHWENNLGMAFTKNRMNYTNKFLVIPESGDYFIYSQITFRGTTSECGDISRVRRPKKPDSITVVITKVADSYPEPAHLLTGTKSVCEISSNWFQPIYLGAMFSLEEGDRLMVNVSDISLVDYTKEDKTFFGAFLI
Method: as §1, §2

[4] = molecular target: T4, human IL-12 (human, UniProt P29460 23-328; P29459 23-219); assay: cell-based or functional assay
T4 sequence 1: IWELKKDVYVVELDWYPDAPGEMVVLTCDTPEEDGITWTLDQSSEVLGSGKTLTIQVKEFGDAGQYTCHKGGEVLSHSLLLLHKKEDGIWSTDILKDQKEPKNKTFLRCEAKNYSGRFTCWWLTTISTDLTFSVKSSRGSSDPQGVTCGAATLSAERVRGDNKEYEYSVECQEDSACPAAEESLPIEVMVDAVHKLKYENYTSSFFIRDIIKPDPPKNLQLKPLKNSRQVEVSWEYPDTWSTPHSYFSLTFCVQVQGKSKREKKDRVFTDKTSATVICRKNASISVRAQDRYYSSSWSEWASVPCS
T4 sequence 2: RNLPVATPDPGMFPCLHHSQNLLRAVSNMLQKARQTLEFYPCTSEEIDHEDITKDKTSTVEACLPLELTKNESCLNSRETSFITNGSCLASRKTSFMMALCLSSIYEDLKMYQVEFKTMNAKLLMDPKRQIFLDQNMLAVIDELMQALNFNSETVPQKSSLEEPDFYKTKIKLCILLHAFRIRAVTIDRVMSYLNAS

[5] = molecular target: T5, cynomolgus monkey IL-12 (cynomolgus monkey); assay: cell-based or functional assay
T5 chain 1: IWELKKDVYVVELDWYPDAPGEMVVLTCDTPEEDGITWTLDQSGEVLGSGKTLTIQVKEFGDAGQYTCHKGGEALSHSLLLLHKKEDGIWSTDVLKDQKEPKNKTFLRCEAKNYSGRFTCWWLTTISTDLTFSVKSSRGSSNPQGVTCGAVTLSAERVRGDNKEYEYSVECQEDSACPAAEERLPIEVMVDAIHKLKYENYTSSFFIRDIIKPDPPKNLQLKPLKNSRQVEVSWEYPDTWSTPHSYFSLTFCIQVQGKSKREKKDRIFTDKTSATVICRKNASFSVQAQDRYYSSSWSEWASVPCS
T5 chain 2: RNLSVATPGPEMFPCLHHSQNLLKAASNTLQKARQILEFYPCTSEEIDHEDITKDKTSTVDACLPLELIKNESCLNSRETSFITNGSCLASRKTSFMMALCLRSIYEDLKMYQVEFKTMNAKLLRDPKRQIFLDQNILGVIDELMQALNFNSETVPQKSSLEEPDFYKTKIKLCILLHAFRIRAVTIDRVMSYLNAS

[6] = molecular target: T6, cynomolgus monkey IL-23 (cynomolgus monkey, limits assumed); assay: cell-based or functional assay
T6 chain 1: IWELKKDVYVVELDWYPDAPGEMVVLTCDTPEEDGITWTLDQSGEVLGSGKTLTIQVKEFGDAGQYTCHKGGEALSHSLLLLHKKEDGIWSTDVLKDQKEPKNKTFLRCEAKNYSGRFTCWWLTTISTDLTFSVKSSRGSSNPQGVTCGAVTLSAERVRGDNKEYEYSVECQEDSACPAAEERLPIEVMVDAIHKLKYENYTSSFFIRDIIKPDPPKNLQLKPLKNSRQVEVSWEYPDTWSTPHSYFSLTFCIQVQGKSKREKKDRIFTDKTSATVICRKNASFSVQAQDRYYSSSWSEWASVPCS
T6 chain 2: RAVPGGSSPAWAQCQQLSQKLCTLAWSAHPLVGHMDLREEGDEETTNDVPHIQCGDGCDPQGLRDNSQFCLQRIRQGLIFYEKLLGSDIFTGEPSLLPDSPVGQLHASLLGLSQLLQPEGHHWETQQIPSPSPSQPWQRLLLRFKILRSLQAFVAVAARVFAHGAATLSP

[7] = molecular target: T7, human IL-23 (human, UniProt P29460 23-328; Q9NPF7 20-189); assay: cell-based or functional assay
T7 sequence 1: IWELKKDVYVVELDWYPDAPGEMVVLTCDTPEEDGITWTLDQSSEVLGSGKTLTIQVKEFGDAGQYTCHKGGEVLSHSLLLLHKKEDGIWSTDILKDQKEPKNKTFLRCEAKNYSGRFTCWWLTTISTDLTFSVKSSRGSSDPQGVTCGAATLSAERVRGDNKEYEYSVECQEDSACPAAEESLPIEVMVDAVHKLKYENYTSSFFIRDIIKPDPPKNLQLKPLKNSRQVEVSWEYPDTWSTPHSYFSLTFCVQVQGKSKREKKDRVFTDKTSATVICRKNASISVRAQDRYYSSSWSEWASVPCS
T7 sequence 2: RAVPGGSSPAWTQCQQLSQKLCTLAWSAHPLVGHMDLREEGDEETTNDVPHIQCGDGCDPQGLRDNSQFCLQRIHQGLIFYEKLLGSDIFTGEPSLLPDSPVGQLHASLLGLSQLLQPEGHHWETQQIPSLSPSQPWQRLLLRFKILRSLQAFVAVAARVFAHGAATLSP

Binder	binding result [1]	binding result [2]	binding result [3]	KIT-225 STAT4 phosphorylation, Human IL-12 IC50 [4]	KIT-225 STAT4 phosphorylation, Cynomolgus Monkey IL-12 IC50 [5]	KIT-225 STAT3 phosphorylation, Cynomolgus Monkey IL-23 IC50 [6]	KIT-225 STAT3 phosphorylation, Human IL-23 IC50 [7]
p40TL1A-0033 (bispecific antibody, human IgG1, kappa, KiH modified-Fd bispecific: TL1A VL-CL-Fc (hole), TL1A mFd, p40 HC (knob), p40 LC; LS) chain 1: not shown chain 2: QVQLVQSGAEVKKPGASVKVSCKASGYDYTYYGISWVRQAPGQGLEWMGWISTYNTGTHYAPSLQGRVTMTTDTSTSTAYMELRSLRSDDTAVYYCARESYYGSGAFRGGMDVWGQGTTVTVSSASTKGPSVFPLAPSSKSTSGGTAALGCLVKDYFPEPVTVSWNSGALTSGVHTFPAVLQSSGLYSLSSVVTVPSSSLGTQTYICNVNHKPSNTKVDKKVEPKSC heavy: EVQLVQSGAEVKKPGESLKISCKGSGYSFTTYWLGWVRQMPGKGLDWIGIMSPVDSDIRYSPSFQGQVTMSVDKSITTAYLQWNSLKASDTAMYYCARRRPGQGYFDFWGQGTLVTVSSASTKGPSVFPLAPSSKSTSGGTAALGCLVKDYFPEPVTVSWNSGALTSGVHTFPAVLQSSGLYSLSSVVTVPSSSLGTQTYICNVNHKPSNTKVDKKVEPKSCDKTHTCPPCPAPEAAGAPSVFLFPPKPKDTLMISRTPEVTCVVVDVSHEDPEVKFNWYVDGVEVHNAKTKPREEQYNSTYRVVSVLTVLHQDWLNGKEYKCKVSNKALPAPIEKTISKAKGQPREPQVCTLPPSREEMTKNQVSLWCLVKGFYPSDIAVEWESNGQPENNYKTTPPVLDSDGSFFLYSKLTVDKSRWQQGNVFSCSVLHEALHSHYTQKSLSLSPGK light: not shown	no binding (tested: 200 nM)	binds	binds				
p40TL1A-0033 bispecific antibody (bispecific antibody, human IgG1, kappa, Single cell KiH, modified Fd format; IgG1 effector-function-minimized Fc with LS mutations) heavy: EVQLVQSGAEVKKPGESLKISCKGSGYSFTTYWLGWVRQMPGKGLDWIGIMSPVDSDIRYSPSFQGQVTMSVDKSITTAYLQWNSLKASDTAMYYCARRRPGQGYFDFWGQGTLVTVSSASTKGPSVFPLAPSSKSTSGGTAALGCLVKDYFPEPVTVSWNSGALTSGVHTFPAVLQSSGLYSLSSVVTVPSSSLGTQTYICNVNHKPSNTKVDKKVEPKSCDKTHTCPPCPAPEAAGAPSVFLFPPKPKDTLMISRTPEVTCVVVDVSHEDPEVKFNWYVDGVEVHNAKTKPREEQYNSTYRVVSVLTVLHQDWLNGKEYKCKVSNKALPAPIEKTISKAKGQPREPQVCTLPPSREEMTKNQVSLWCLVKGFYPSDIAVEWESNGQPENNYKTTPPVLDSDGSFFLYSKLTVDKSRWQQGNVFSCSVLHEALHSHYTQKSLSLSPGK light: not shown chain 1: not shown chain 2: QVQLVQSGAEVKKPGASVKVSCKASGYDYTYYGISWVRQAPGQGLEWMGWISTYNTGTHYAPSLQGRVTMTTDTSTSTAYMELRSLRSDDTAVYYCARESYYGSGAFRGGMDVWGQGTTVTVSSASTKGPSVFPLAPSSKSTSGGTAALGCLVKDYFPEPVTVSWNSGALTSGVHTFPAVLQSSGLYSLSSVVTVPSSSLGTQTYICNVNHKPSNTKVDKKVEPKSC				1.11 nM	0.95 nM	4.34 nM	3.73 nM

Reference: patent US20240059799A1 (Pfizer, published 2024)
